Experimental data from patent US20200087400A1 (EUREKA THERAPEUTICS, published 2020).

Experiments:
[1] = target: T1, control peptide A2E-5/HLA-A*02:01 complex on T2 cells (member of the P19 mixture) (human); test: flow cytometry, phage on T2 cells
T1 construct: Loaded on T2 cells as part of the mixture of 19 control peptides
Method: (§1) Individual phage clones from enriched phage display panning pools against PSA146/HLA-A*02:01 complex were incubated in the coated plates. Binding of the phage clones was detected by HRP-conjugated anti-M13 antibodies and developed using HRP substrate. The absorbance was read at 450 nm. […] Then, unique antibody clones were identified through DNA sequencing of ELISA-positive clones. […] T2 cells loaded with different peptides and β2M were first stained with purified scFv phage clones, followed by staining with a mouse anti-M13 mAb, and finally R-PE conjugated horse anti-mouse IgG from Vector Labs. Each step of the staining was performed for between 30-60 minutes on ice and the cells were washed twice between stainings. All 16 clones recognized PSA146-loaded T2 cells specifically. FIG. 3 provides examples of PSA146/HLA-A*02:01 specific phage clone binding to peptide-loaded T2 cells through FACS.

[2] = target: T2, control peptide A2E-21/HLA-A*02:01 complex on T2 cells (member of the P19 mixture) (human); test: flow cytometry, phage on T2 cells
T2 construct: Loaded on T2 cells as part of the mixture of 19 control peptides
Method: as §1

[3] = target: T3, control peptide A2E-16/HLA-A*02:01 complex on T2 cells (member of the P19 mixture) (human); test: flow cytometry, phage on T2 cells
T3 construct: Loaded on T2 cells as part of the mixture of 19 control peptides
Method: as §1

[4] = target: T4, control peptide A2E-1/HLA-A*02:01 complex on T2 cells (member of the P19 mixture) (human); test: flow cytometry, phage on T2 cells
T4 construct: Loaded on T2 cells as part of the mixture of 19 control peptides
Method: as §1

[5] = target: T5, control peptide A2E-14/HLA-A*02:01 complex on T2 cells (member of the P19 mixture) (human); test: flow cytometry, phage on T2 cells
T5 construct: Loaded on T2 cells as part of the mixture of 19 control peptides
Method: as §1

[6] = target: T6, control peptide A2E-11/HLA-A*02:01 complex on T2 cells (member of the P19 mixture) (human); test: flow cytometry, phage on T2 cells
T6 construct: Loaded on T2 cells as part of the mixture of 19 control peptides
Method: as §1

[7] = target: T7, control peptide A2E-2/HLA-A*02:01 complex on T2 cells (member of the P19 mixture) (human); test: flow cytometry, phage on T2 cells
T7 construct: Loaded on T2 cells as part of the mixture of 19 control peptides
Method: as §1

[8] = target: T8, control peptide A2E-15/HLA-A*02:01 complex on T2 cells (member of the P19 mixture) (human); test: flow cytometry, phage on T2 cells
T8 construct: Loaded on T2 cells as part of the mixture of 19 control peptides
Method: as §1

[9] = target: T9, control peptide A2E-4/HLA-A*02:01 complex on T2 cells (member of the P19 mixture) (human); test: flow cytometry, phage on T2 cells
T9 construct: Loaded on T2 cells as part of the mixture of 19 control peptides
Method: as §1

[10] = target: T10, control peptide A2E-23/HLA-A*02:01 complex on T2 cells (member of the P19 mixture) (human); test: flow cytometry, phage on T2 cells
T10 construct: Loaded on T2 cells as part of the mixture of 19 control peptides
Method: as §1

[11] = target: T11, control peptide A2E-3/HLA-A*02:01 complex on T2 cells (member of the P19 mixture) (human); test: flow cytometry, phage on T2 cells
T11 construct: Loaded on T2 cells as part of the mixture of 19 control peptides
Method: as §1

[12] = target: T12, control peptide A2E-8/HLA-A*02:01 complex on T2 cells (member of the P19 mixture) (human); test: flow cytometry, phage on T2 cells
T12 construct: Loaded on T2 cells as part of the mixture of 19 control peptides
Method: as §1

[13] = target: T13, control peptide A2E-17/HLA-A*02:01 complex on T2 cells (member of the P19 mixture) (human); test: flow cytometry, phage on T2 cells
T13 construct: Loaded on T2 cells as part of the mixture of 19 control peptides
Method: as §1

[14] = target: T14, control peptide A2E-13/HLA-A*02:01 complex on T2 cells (member of the P19 mixture) (human); test: flow cytometry, phage on T2 cells
T14 construct: Loaded on T2 cells as part of the mixture of 19 control peptides
Method: as §1

[15] = target: T15, control peptide A2E-6/HLA-A*02:01 complex on T2 cells (member of the P19 mixture) (human); test: flow cytometry, phage on T2 cells
T15 construct: Loaded on T2 cells as part of the mixture of 19 control peptides
Method: as §1

[16] = target: T16, control peptide A2E-10/HLA-A*02:01 complex on T2 cells (member of the P19 mixture) (human); test: flow cytometry, phage on T2 cells
T16 construct: Loaded on T2 cells as part of the mixture of 19 control peptides
Method: as §1

[17] = target: T17, control peptide A2E-9/HLA-A*02:01 complex on T2 cells (member of the P19 mixture) (human); test: flow cytometry, phage on T2 cells
T17 construct: Loaded on T2 cells as part of the mixture of 19 control peptides
Method: as §1

[18] = target: T18, control peptide A2E-7/HLA-A*02:01 complex on T2 cells (member of the P19 mixture) (human); test: flow cytometry, phage on T2 cells
T18 construct: Loaded on T2 cells as part of the mixture of 19 control peptides
Method: as §1

[19] = target: T19, control peptide A2E-19/HLA-A*02:01 complex on T2 cells (member of the P19 mixture) (human); test: flow cytometry, phage on T2 cells
T19 construct: Loaded on T2 cells as part of the mixture of 19 control peptides
Method: as §1

[20] = target: T20, PSA 146-154 peptide/HLA-A*02:01 complex on the cell surface (human); test: flow cytometry, phage on T2 cells, anti-M13 + R-PE anti-mouse IgG
T20 construct: also called PSA146/HLA-A*02:01; PSA146-loaded T2 cells
How it was run: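 Flow read-out uses R-PE fluorescence: peptide/β2M-loaded T2 cells stained with scFv phage, then anti-M13 and R-PE anti-mouse IgG, all on ice for 30-60 min per step with double washes.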

Bio-P19 member A2E-2 = target: T21, Bio-P19 member A2E-2 (chain 2 carries a C-terminal BirA substrate peptide (BSP), enzymatically biotinylated; the BSP letters are not given in the patent and are left out); test: phage ELISA, streptavidin plate, anti-M13-HRP
T21 construct: also called biotinylated control peptide A2E-2/HLA-A*02:01 monomer
How it was run: (§2)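 T2 cells + peptide + β2M → purified scFv phage → mouse anti-M13 mAb → R-PE anti-mouse IgG; each step 30-60 min on ice, two washes between. ELISA: phage clones on coated plate, HRP anti-M13, A450.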

Bio-P19 member A2E-23 = target: T22, Bio-P19 member A2E-23 (chain 2 carries a C-terminal BirA substrate peptide (BSP), enzymatically biotinylated; the BSP letters are not given in the patent and are left out); test: phage ELISA, streptavidin plate, anti-M13-HRP
T22 construct: also called biotinylated control peptide A2E-23/HLA-A*02:01 monomer
How it was run: as §2

Bio-P19 member A2E-3 = target: T23, Bio-P19 member A2E-3 (chain 2 carries a C-terminal BirA substrate peptide (BSP), enzymatically biotinylated; the BSP letters are not given in the patent and are left out); test: phage ELISA, streptavidin plate, anti-M13-HRP
T23 construct: also called biotinylated control peptide A2E-3/HLA-A*02:01 monomer
How it was run: as §2

| Binder | binding result [1] | binding result [2] | binding result [3] | binding result [4] | binding result [5] | binding result [6] | binding result [7] | binding result [8] | binding result [9] | binding result [10] | binding result [11] | binding result [12] | binding result [13] | binding result [14] | binding result [15] | binding result [16] | binding result [17] | binding result [18] | binding result [19] | binding result [20] | also measured |
| --- | --- | --- | --- | --- | --- | --- | --- | --- | --- | --- | --- | --- | --- | --- | --- | --- | --- | --- | --- | --- | --- |
| PSA146/HLA-A*02:01-specific scFv phage clone #13 (scFv, V domains shown) VH: QVQLVQSGAEVKKPGASVKVSCKASGYTFTSYYMHWVRQAPGQGLEWMGGFDPEDGETIYAQKFQGRVTMTEDTSTDTAYMGLSSLRSEDTAVYYCARYSYDYWGQGTLVTVSS VL: QAVVTQEPSLTVSPGGTVTLTCASSTGAVTSGYYPNWFQQKPGQAPRALIYSTSNKHSWTPARFSGSLLGGKAALTLSGVQPEDEAEYYCLLYYGGAYVFGTGTKVTVLG | no binding | no binding | no binding | no binding | no binding | no binding | no binding | no binding | no binding | no binding | no binding | no binding | no binding | no binding | no binding | no binding | no binding | no binding | no binding | binds | binding result (Bio-P19 member A2E-2): no binding; binding result (Bio-P19 member A2E-23): no binding; binding result (Bio-P19 member A2E-3): no binding |
| PSA146/HLA-A*02:01-specific scFv phage clone #10 (scFv, V domains shown) VH: QVQLVQSGAEVKKPGSSVKVSCKASGGTFSSYAISWVRQAPGQGLEWMGWINPNSGGTNYAQKFQGRVTMTRDTSISTAYMELSRLRSDDTAVYYCARWSYYYFQQFWSLDGWGQGTLVTVSS VL: not shown | no binding | no binding | no binding | no binding | no binding | no binding | no binding | no binding | no binding | no binding | no binding | no binding | no binding | no binding | no binding | no binding | no binding | no binding | no binding | binds | binding result (Bio-P19 member A2E-2): no binding; binding result (Bio-P19 member A2E-23): no binding; binding result (Bio-P19 member A2E-3): no binding |
| PSA146/HLA-A*02:01-specific scFv phage clone #12 (scFv, V domains shown) VH: QMQLVQSGSEVKKPGASVKVSCKASGYTFTSYGISWVRQAPGQGLEWMGWISAYNGNTDYVQKLQGRVTMTTDTSTNTAYMELGSLGSDDTAVYYCARTNYNKYDIWGQGTLVTVSS VL: QSVLTQPPSVSGAPGQRVTISCTGSSSNIGAGYDVHWYQQLPGTAPKLLIYGNSNRPSGVPDRFSGSKSGTSASLAITGLQAEDEADYYCQSYDSSLSEVFGTGTKVTVLG | no binding | no binding | no binding | no binding | no binding | no binding | no binding | no binding | no binding | no binding | no binding | no binding | no binding | no binding | no binding | no binding | no binding | no binding | no binding | binds | binding result (Bio-P19 member A2E-2): no binding; binding result (Bio-P19 member A2E-23): no binding; binding result (Bio-P19 member A2E-3): no binding |
| PSA146/HLA-A*02:01-specific scFv phage clone #9 (scFv, V domains shown) VH: QVQLVQSGAEVKKPGASVKVSCKASGYTFTSYGISWVRQAPGQGLEWMGWISAYNGNTNYAQKLQGRVTMTTDTSTSTAYMELRSLRSDDTAVYYCARSSQYYVWDSWGQGTLVTVSS VL: QSVVTQPPSVSGAPGQRVTISCTGSSSNFGAGYDVHWYQQLPGTAPKLLIYGNSNRPSGVPDRFSGSKSGTSASLAITGLQAEDEADYYCQSYDSSLSGWVFGGGTKLTVLG | no binding | no binding | no binding | no binding | no binding | no binding | no binding | no binding | no binding | no binding | no binding | no binding | no binding | no binding | no binding | no binding | no binding | no binding | no binding | binds | binding result (Bio-P19 member A2E-2): no binding; binding result (Bio-P19 member A2E-23): no binding; binding result (Bio-P19 member A2E-3): no binding |
